# Results as given in IntAct's records for PubMed 9418872.
# B1: Tyrosine-protein phosphatase non-receptor type 1 (Homo sapiens), P18031 (parent)
# chain: MEMEKEFEQIDKSGSWAAIYQDIRHEASDFPCRVAKLPKNKNRNRYRDVSPFDHSRIKLHQEDNDYINASLIKMEEAQRSYILTQGPLPNTCGHFWEMVWEQKSRGVVMLNRVMEKGSLKCAQYWPQKEEKEMIFEDTNLKLTLISEDIKSYYTVRQLELENLTTQETREILHFHYTTWPDFGVPESPASFLNFLFKVRESGSLSPEHGPVVVHCSAGIGRSGTFCLADTCLLLMDKRKDPSSVDIKKVLLEMRKFRMGLIQTADQLRFSYLAVIEGAKFIMGDSSVQDQWKELSHEDLEPPPEHIPPPPRPPKRILEPHNGKCREFFPNHQWVKEETQEDKDCPIKEEKGSPLNAAPYGIESMSQDTEVRSRVVGGSLRGAQAASPAKGEPSLPEKDEDHALSYWKPFLVNMCVATVLTAGAYLCYRFLFNSNT
# partner: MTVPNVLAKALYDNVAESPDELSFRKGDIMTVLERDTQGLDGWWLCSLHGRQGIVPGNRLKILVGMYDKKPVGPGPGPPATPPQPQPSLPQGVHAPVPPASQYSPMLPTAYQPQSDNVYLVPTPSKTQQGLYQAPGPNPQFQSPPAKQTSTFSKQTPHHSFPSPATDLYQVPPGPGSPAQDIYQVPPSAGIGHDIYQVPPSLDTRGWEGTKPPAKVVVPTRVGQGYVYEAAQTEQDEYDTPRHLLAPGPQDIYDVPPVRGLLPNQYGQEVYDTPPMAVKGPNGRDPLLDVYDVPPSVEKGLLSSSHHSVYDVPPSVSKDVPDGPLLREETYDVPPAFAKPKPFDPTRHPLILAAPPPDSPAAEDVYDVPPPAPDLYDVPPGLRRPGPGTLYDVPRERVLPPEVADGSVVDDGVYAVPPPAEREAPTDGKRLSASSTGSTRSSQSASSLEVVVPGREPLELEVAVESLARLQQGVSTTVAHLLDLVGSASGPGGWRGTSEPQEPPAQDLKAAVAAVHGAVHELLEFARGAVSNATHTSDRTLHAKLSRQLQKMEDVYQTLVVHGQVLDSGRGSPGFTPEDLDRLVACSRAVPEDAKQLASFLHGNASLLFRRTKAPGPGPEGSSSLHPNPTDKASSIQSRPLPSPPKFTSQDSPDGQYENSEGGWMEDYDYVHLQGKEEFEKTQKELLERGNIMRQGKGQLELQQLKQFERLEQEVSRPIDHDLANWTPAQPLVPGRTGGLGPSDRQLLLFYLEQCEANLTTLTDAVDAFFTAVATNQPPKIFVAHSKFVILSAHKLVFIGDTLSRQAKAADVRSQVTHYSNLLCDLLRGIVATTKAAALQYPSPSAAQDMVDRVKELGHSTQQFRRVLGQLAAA
# B2: Tyrosine-protein phosphatase non-receptor type 1 (Homo sapiens), P18031 (parent)
# chain: B1 chain
# B3: Tyrosine-protein phosphatase non-receptor type 1 (Homo sapiens), P18031 (parent)
# chain: B1 chain
# partner: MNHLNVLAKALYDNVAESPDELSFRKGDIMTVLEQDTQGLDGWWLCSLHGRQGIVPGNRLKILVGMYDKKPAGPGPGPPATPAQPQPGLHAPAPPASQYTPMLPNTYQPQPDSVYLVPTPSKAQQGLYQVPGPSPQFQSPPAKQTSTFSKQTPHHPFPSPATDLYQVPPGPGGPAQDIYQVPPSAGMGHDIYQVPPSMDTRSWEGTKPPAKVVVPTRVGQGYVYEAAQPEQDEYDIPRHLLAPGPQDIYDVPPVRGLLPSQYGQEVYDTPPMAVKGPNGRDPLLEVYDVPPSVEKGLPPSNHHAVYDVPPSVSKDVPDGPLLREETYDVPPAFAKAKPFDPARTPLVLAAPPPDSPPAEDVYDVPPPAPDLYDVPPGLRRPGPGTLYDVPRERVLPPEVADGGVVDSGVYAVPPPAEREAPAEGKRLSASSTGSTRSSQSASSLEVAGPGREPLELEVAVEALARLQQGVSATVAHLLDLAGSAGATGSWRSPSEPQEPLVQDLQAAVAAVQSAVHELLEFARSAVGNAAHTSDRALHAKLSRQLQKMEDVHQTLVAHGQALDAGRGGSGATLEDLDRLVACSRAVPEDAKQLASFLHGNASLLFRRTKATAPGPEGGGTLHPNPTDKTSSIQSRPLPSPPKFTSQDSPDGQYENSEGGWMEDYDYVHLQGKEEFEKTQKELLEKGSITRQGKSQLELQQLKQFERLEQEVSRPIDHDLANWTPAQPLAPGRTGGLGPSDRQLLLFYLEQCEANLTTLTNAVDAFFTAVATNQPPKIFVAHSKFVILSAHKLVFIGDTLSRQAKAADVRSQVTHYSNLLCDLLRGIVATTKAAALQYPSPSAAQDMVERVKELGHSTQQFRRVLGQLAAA
# Variants of: B1
# Settings: with bcar1_mouse Bcar1, Q61140
row,effect of a mutation on the interaction,Variant
1,disrupting interaction,P309A
2,disrupting interaction,P310A

# Variants of: B1
# Settings: with bcar1_mouse Bcar1, Q61140
# Remark: another data set of the same source
row,effect of a mutation on the interaction,Variant
1,disrupting interaction,C215S

# Variants of: B2
# Settings: with paxi_mouse Pxn
row,effect of a mutation on the interaction,Variant
1,disrupting interaction,P310A
2,disrupting interaction,P309A

# Variants of: B2
# Settings: with fak1_mouse Ptk2, P34152
# Chain of fak1_mouse Ptk2, P34152 (P34152 whole entry): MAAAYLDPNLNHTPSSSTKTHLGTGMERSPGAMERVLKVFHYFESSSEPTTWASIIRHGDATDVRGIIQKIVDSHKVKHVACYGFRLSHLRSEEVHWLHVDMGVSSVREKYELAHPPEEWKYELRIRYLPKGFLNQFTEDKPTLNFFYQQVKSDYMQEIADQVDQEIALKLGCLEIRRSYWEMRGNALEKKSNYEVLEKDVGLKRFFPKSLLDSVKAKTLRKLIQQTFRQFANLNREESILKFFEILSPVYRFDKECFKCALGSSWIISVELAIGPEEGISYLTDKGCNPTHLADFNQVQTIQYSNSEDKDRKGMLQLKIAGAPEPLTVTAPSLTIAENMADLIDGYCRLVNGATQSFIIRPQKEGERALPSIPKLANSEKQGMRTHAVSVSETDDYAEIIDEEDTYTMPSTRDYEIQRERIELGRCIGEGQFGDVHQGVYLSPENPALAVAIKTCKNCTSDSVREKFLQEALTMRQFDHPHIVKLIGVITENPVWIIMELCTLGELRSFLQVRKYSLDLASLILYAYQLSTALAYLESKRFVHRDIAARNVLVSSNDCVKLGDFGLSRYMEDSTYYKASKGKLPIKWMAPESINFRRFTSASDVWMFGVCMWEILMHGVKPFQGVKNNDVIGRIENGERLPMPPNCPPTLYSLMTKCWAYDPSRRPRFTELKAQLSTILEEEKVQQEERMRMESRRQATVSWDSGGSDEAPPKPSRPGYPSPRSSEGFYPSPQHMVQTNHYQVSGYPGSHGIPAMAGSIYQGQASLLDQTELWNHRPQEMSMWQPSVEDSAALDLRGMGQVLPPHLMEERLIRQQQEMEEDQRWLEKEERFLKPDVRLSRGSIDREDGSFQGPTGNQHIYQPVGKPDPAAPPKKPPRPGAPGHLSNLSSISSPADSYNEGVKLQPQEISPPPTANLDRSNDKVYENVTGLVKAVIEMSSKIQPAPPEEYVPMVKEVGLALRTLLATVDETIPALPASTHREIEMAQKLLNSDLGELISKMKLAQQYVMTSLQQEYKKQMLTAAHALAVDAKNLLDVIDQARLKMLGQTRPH
row,effect of a mutation on the interaction,Variant
1,disrupting interaction,P310A
2,disrupting interaction,P309A

# Variants of: B2
# Settings: with paxi_mouse Pxn
# Remark: another data set of the same source
row,effect of a mutation on the interaction,Variant
1,disrupting interaction,C215S

# Variants of: B2
# Settings: with fak1_mouse Ptk2, P34152
# Remark: another data set of the same source
row,effect of a mutation on the interaction,Variant
1,disrupting interaction,C215S

# Variants of: B3
# Settings: with bcar1_human BCAR1, P56945
row,effect of a mutation on the interaction,Variant
1,disrupting interaction,P310A
2,disrupting interaction,P309A
